Test results published in patent publication CN112010972A (REYOUNG SUZHOU BIOPHARMACEUTICAL CO LTD, dated 2020).

T1: 带有His标签的人LAG-3蛋白的胞外结构域(Acro) (human, UniProt P18627 23-450)
T1 construct: extracellular domain; Bought protein (Acro); also called Human-LAG-3-His; 抗原; not shown: His tag
T1 sequence (looked up): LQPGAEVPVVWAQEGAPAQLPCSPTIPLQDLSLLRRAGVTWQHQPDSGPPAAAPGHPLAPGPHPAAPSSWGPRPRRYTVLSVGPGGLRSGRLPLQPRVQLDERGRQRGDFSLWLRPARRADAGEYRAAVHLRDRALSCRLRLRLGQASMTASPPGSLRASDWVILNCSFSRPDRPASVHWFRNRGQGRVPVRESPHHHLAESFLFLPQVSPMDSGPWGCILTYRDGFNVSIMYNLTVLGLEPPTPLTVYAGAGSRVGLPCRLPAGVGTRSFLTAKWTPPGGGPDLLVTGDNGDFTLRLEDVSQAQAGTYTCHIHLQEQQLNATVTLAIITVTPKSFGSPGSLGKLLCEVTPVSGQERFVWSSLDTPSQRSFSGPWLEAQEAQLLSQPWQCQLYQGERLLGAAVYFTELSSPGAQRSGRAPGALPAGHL

B1: 抗LAG-3人鼠嵌合抗体 78H3VL-78H3VH (antibody, V domains shown)
VH: EVQLQQSGPVLAKPGASVKMSCKTSGYTLTDYYMNWVKQSHGKSLEWIGIINPYNGDTSYNQRFKGKATLTVDKSSSTAYMELNSLTSEDSAVYYCARDDGYYVDYFDYWGQGTTLTVSS
VL: DIQMTQSPSSLSASLGERVSLTCRASQDIGNSLNWLQQEPDGTIKRLIYATSSLDSGVPKRFSGSRSGSDYSLTISSLESEDFVDYYCLQHASSPPTFGAGTKLELKR
B2: 抗LAG-3人鼠嵌合抗体 17E3VL-17E3VH (antibody, V domains shown)
VH: EVMLVESGGGLVKPGGSLKLSCAASGFTFITYAMSWVRQTPEKRLEWVASINNGGTHYPDTMKGRFTISRDNARNILYLQMSSLRSEDTAMYYCARSYNGIPHYFDYWGQGTTLTVSS
VL: DILMTQTPASLAVSLGQRATISCRTSESIDNYGVSFMNWFQQKPGQPPRLLIYAASNQGSGVPARFSGSGSGADFSLNIHPMEEDDSALYFCQQSKEVPFTFGSGTKLEIKR
B3: 抗LAG-3人鼠嵌合抗体 29VL-17E3VH (antibody, V domains shown)
VH: B2 VH
VL: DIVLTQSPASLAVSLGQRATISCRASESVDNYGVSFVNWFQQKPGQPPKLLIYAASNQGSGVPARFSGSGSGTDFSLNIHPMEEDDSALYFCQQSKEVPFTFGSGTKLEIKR

Molecular target: T1, 带有His标签的人LAG-3蛋白的胞外结构域(Acro)
Assay: SPR (Biacore), supernatant captured on Protein A chip, 100 nM human LAG-3 as analyte, 1:1 fit

Kd [nM]	Binder
~0.1	B1
~0.1	B2
~0.1	B3
